According to patent publication US20110251266, “APTAMER FOR NGF AND USE THEREOF” (Shionogi & Co., Ltd., published 2011):

How the values were obtained:
[1] = target: T1, beta-NGF (nerve growth factor) (Homo sapiens, UniProt P01138 P01138:122-241); assay: SPR; NGF-TrkA and NGF-P75; no PC-12 inhibition; conditions: tags: R&D Systems human NGF; chain copies: 2
Protocol: (§1) As directed in BIAcore Company's protocol, Protein A (21181, PIERCE) was immobilized on a CM5 sensor chip. About 1100 RU of human Trk A-Fc fused with the Fc portion of IgG (175-TK, R&D systems) was immobilized thereon. As the analyte, a mixture of NGF (0.1 μM) and each aptamer (0.33 μM) was injected after being allowed to stand for 30 minutes. […] When NGF binds stronger to a receptor than an aptamer, the aptamer may be removed and NGF may bind to the receptor. […] Using the binding amount of NGF and NGF receptor without an aptamer as 100, the binding amount of NGF and NGF receptor added with an aptamer was determined as a correction value. Here, the binding amount is the RU value at the peak top of the sensorgram of BIAcore (RU value immediately after completion of NGF injection). […] A similar experiment was performed for another receptor P75 (p75-Fc; R&D systems).

[2] = target: T1, beta-NGF (nerve growth factor); assay: SPR; more than 30N; inhibits TrkA and P75 binding; conditions: tags: R&D Systems human NGF; chain copies: 2
Protocol: as §1

[3] = target: T1, beta-NGF (nerve growth factor); assay: SPR; more than 30N; cell IC50 26.1 nM; conditions: tags: R&D Systems human NGF; chain copies: 2
[4] = target: T1, beta-NGF (nerve growth factor); assay: cell_activity; Neuroscreen-1 neurite outgrowth; 92% inhibition at 300 nM (Table 5); conditions: tags: R&D Systems human NGF; chain copies: 2
[5] = target: T1, beta-NGF (nerve growth factor); assay: cell_activity; PC-12 neurite outgrowth, 500 nM aptamer; conditions: tags: R&D Systems; chain copies: 2
Protocol: The physiological activity of aptamer was evaluated by a neurite outgrowth suppressive experiment using PC-12 cells. PC-12 cell, which is a cell line derived from rat adrenal gland pheochromocytoma, is a model cell of the nervous system, elongates neurite by NGF stimulation, and differentiates like nerve cells. Whether or not an aptamer inhibits the neurite outgrowth was evaluated. PC-12 cells were seeded on a 96 well flat-bottom plate coated with collagen, and a mixed solution of NGF (final concentration 25 ng/ml, or 1.9 nM) prereacted for 1 hr at 37° C. and an aptamer (final concentration 500 nM) was added to start the cell culture. Thereafter, the same amount of the aptamer was added twice every 24 hr and the level of neurite outgrowth was observed and evaluated on day 3 with a microscope. For evaluation, scores 0-3 were used, where score 0 is no neurite outgrowth, score 1 is slight neurite outgrowth, score 2 is neurite outgrowth to the nearby cell, and score 3 is markedly reticulated neurite outgrowth. The system wherein PC-12 cells were cultivated for 3 days with the addition of NGF alone was taken as a negative control, and system capable wherein the cells for 3 days without addition of NGF was taken as a positive control. […] Setting the score of the negative control as inhibitory activity 0%, and the score of the positive control as inhibitory activity 100%, the inhibitory activity (%) of the aptamer was calculated. An inhibitory activity of not less than 50% is shown with +, and that of less than 50% is shown with −.

[6] = target: T1, beta-NGF (nerve growth factor); assay: cell_activity; 100 nM aptamer; parent 92.7%; conditions: tags: R&D Systems human NGF; chain copies: 2
Protocol: (§2) The neurite outgrowth inhibitory activity of aptamer was evaluated by using Neuroscreen-1 cell, which is a subclone of PC-12 cells. 2500 Cells per well were cultured for one day in an RPMI-1640 medium containing 2.5% horse serum and 1.25% fetal bovine serum in a 96 well flat-bottom plate coated with collagen type IV. A mixed solution of NGF (final concentration 15 ng/ml or 1.1 nM) prereacted in a serum-free RPMI-1640 medium at room temperature or 37° C. for 30 min to 1 hr and an aptamer (final concentration 500-3 nM) was added. Two or three days later, the cytoplasm and nuclei were stained using Cellomics Neurite Outgrowth Kits (manufactured by Thermo Scientific), and neurite length per cell was measured by Cellomics ArrayScan VTI (manufactured by Thermo Scientific). With the neurite length per cell obtained by culturing the cell for 2 days with the addition of NGF alone as inhibitory activity 0%, and that of the cell obtained by NGF free culture as inhibitory activity 100%, the inhibitory activity of the aptamer was calculated from the neurite length per cell obtained by culturing with the addition of NGF and the aptamer in mixture. […] When the inhibitory activity was 0% or below, ‘0%’ is indicated. When it was not less than 100%, ‘100%’ is indicated. The 50% inhibitory concentration was determined from the concentrations at two, above and below points sandwiching the 50% inhibitory activity.
Inverted dT is added to the 5′ and 3′ terminals. The activity was evaluated using Neuroscreen-1 cells in the same manner as in Example 8.

[7] = target: T1, beta-NGF (nerve growth factor); assay: cell_activity; Neuroscreen-1 neurite outgrowth, 1.1 nM NGF; conditions: tags: R&D Systems human NGF; chain copies: 2
Protocol: as §2, with “When it was not less than 100%, ‘100%’ is indicated.” left out

T1 sequence (P01138 122-241, one chain of several): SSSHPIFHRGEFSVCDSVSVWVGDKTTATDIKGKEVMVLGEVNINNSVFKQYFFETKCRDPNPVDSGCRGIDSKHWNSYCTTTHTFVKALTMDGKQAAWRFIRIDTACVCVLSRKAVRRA

GGAGCUGCCUACACUUUAGUAUGACAAACCUAGAGUGUAAAUGCUUC (ssRNA, 2'-F pyrimidines) [SEQ25 aptamer]
activity [1]: ≥ 60 % inhibition

B1: SEQ60 aptamer (ssRNA)
RNA: GGGAGAACUUCGACCAGAGGAUUUGAAAAAAACCCGAAUAAAGAUAACAGUAUGUGCGCAUACAUGGAUCCUCA
modifications: 2'-F pyrimidines
binding result [2]: binds

B2: SEQ44 aptamer (ssRNA)
RNA: GGGGAACUUCGACCAGAAGUUUGAAAGAAACCCAAAAUUAGCACCAUAAUAUGUGCGCAUACAUGGAUCCUCA
modifications: 2'-F pyrimidines
binding result [3]: binds

GGGAAGCCUGUGGAGCUGCAGGAUGAAAAAAACCCAAAAUUAAAU (ssRNA, 2'-F pyrimidines) [SEQ27 aptamer]
activity [1]: ≥ 60 % inhibition

GGGAAGCCUGUGGAGCUGCAGGAUGAAAAAAACCCAAA (ssRNA, 2'-F pyrimidines) [SEQ35 aptamer]
IC50 [4]: 91.5 nM

B3: SEQ35(2) (ssRNA)
RNA: GGGAAGCCUGUGGAGCUGCAGGAUGAAAAAAACCCAAA
modifications: 2'-F all pyrimidines; 2'-OMe at a4,a5,g6,g10,g18,a20,g21,g22,a29,a30,a31,a32; idT at 5' and 3' ends
activity [5]: ≥ 50 % inhibition

GGGAAGCCUGUGGAGCUGCAGGAUGAAAAAAACCCAAA (ssRNA, 2'-F all pyrimidines; 2'-OMe at a36,a37,a38) [SEQ35(3)]
activity [5]: ≥ 50 % inhibition

GGGCUGUGGAGCUGCUUAAACAAGCAAGUGAAAAAAACCACAGCCC (ssRNA, 2'-F pyrimidines) [SEQ26 aptamer]
activity [1]: ≥ 60 % inhibition

GGGAGCCUGUAAACAGCAGGUGAAAAAAACCC (ssRNA, 2'-F pyrimidines) [SEQ90 aptamer]
activity [1]: ≥ 60 % inhibition

CGGAUAAAAAUAGAGUUUGAUAAACACCUGUAUUAAAACCG (ssRNA, as SEQ30(6) [as SEQ30(6) (positions not stated)]) [SEQ30(6) G1:C41 to C:G]
activity [6]: 92 % inhibition

GGGAUAAAAUUAGAGUUUGAUAAACACCUGUAAUAAAACCC (ssRNA, as SEQ30(6) [as SEQ30(6) (positions not stated)]) [SEQ30(6) A10:U33 to U:A]
activity [6]: 80.8 % inhibition

GGGAUAAAAAUAGAGUUUGAUAAACACCUGUAUUAAAACCC (ssRNA, 2'-F all pyrimidines; 2'-OMe at a9,a10) [SEQ30(2)]
activity [5]: ≥ 50 % inhibition

B4: SEQ30(1) (ssRNA)
RNA: GGGAUAAAAAUAGAGUUUGAUAAACACCUGUAUUAAAACCC
modifications: 2'-F all pyrimidines; 2'-OMe at a12,g13,a14,g15,g19,a20,a22,a23,a24,a26; idT at 5' and 3' ends
activity [5]: ≥ 50 % inhibition

GGGAUAAAAAUUGAGUUUGAUAAACACCUGAAUUAAAACCC (ssRNA, as SEQ30(6) [as SEQ30(6) (positions not stated)]) [SEQ30(6) A12:U31 to U:A]
activity [6]: 93.1 % inhibition

GGGAUAAAAAUAGAGUUUGAUAAACACCUGUAUUAAAACCC (ssRNA, 2'-F all pyrimidines; 2'-OMe at a35,a36) [SEQ30(3)]
activity [5]: ≥ 50 % inhibition

B5: SEQ32(1) (ssRNA)
RNA: UGUGGAGCUGCUUAAACAAGCAAGUGAAAAAAACCACA
modifications: 2'-F all pyrimidines; 2'-OMe at g10,a14,a15,a16,a18,a19,g20,a22,a23,g24; idT at 5' and 3' ends
activity [5]: ≥ 50 % inhibition

UGUGGAGCUGCUUAAACAAGCAAGUGAAAAAAACCACA (ssRNA, 2'-F all pyrimidines; 2'-OMe at g2,a38) [SEQ32(2)]
activity [5]: ≥ 50 % inhibition

UGUGGAGCUGCUUAAACAAGCAAGUGAAAAAAACCACA (ssRNA, 2'-F all pyrimidines; 2'-OMe at a30,a31) [SEQ32(3)]
activity [5]: ≥ 50 % inhibition

GGGAAGCCUGUAAACAGCAGGAUGAAAAAAACCC (ssRNA, 2'-F pyrimidines) [SEQ89 aptamer]
activity [1]: ≥ 60 % inhibition

B6: SEQ68 aptamer (ssRNA)
RNA: GGGAGAACUUCGACCAGAAGUCGAGAGCGAAAGAAACUCCCAAAACACAGUAUGUGCGCAUACAUGGAUCCUCA
modifications: 2'-F pyrimidines
IC50 [7]: 1.9 nM
